# From the RNAGym collection of RNA variant scans (doi:10.1073/pnas.2313332121)
# B1: TPR t1 (parent)
# chain: GACCAAUCUGCCCUCAGAGCUCGAGAACAUCUUCGGAUGCAGAGGAGGCAGGCUUCGGUGGCGCGAUAGCGCCAACGUCCUCAACCUCCAAUGCAUCCCACCACAUGAUGAUGCCUGAAGAGCCUUGGUUUUUUG
# Variants of: B1
# Assay: polymerase ribozyme fitness, log enrichment relative to wild type (log ratio); higher = more active; in vitro selection for triplet polymerase activity
# Procedure, shortened: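 After PCR construction and transcription, each subunit's mutant library from a heterodimeric triplet polymerase ribozyme was annealed with a biotinylated primer, the partner subunit and triplets. Incubation was frozen, at −7 °C, and extended constructs were gel-excised, bound to streptavidin beads and amplified by RT-PCR, in one selection round done in triplicate. Fitness is the logarithm of a genotype's enrichment divided by that of the wild type, from inverse-variance-weighted replicate averages of Illumina-sequenced inputs and outputs. The base of the logarithm is 2, and genotypes needed ≥10 input reads and ≥1 read per output.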
row,Variant,polymerase ribozyme fitness (log ratio)
1,GACCAAUCUGCCCUCAGAGCUCGAGAACAUCUUCGGAUGCAGAGGAGGCAGGCUUCGGUGGCGCGAUAGCGCCAACGUCCUUAACCUCCAAUGCAUCCCACCACAUGAUGGUGCCUGAAGAGCCUUGGUUUUUUG,-0.268
2,GACCAAUCUGCCCUCAGAGCUCGAGAACAUCUUCGGAUGCAGAGGAGGCAGGCUUCGGUGGCGCGAUAGCGCCAACGUCCUUAACCUCCAAUGCAUCCCACCACAUGAUGAUGCCUGAUGAGCCUUGGUUUUUUG,-0.592
3,GACCAAUCUGCCCUCAGAGCUCGAGAACAUCUUCGGAUGCAGAGGAGGCAGGCUUCGGUGGCGCGAUAGCGCCAACGUCCUUAACCUCCAAUGCCUCCCACCACAAGAUGAUGCCUGAAGAGCCUUGGUUUUUUG,-0.318
4,GACCAAUCUGCCCUCAGAGCUCGAGAACAUCUUCGGAUGCAGAGGAGGCAGGCUUCGGUGGCGCGAUAGCGCCAACGUCCUUAACCUCCAAUGCAUACCACCACAUGAUGAUGCCUGAAGAGCCUUGGUUUUUUG,-4.95
5,GACCAAUCUGCCCUCAGAGCUCGAGAACAUCUUCGGAUGCAGAGGAGGCAGGCUUCGGUGGCGCGAUAGCGCCAACGUCCUUAACCUCCAAUGCAUGCCACCACAUGAUGAUGCCUGAAGAGCCUUGGUUUUUUG,-4.81
6,GACCAAUCUGCCCUCAGAGCUCGAGAACAUCUUCGGAUGCAGAGGAGGCAGGCUUCGGUGGCGCGAUAGCGCCAACGUCCUCCACCUCCAAUGCAUCCCACCACAUGAUGAUGCCUGAAGAGCGUUGGUUUUUUG,0.483
7,GACCAAUCUGCCCUCAGAGCUCGAGAACAUCUUCGGAUGCAGAGGAGGCAGGCUUCGGUGGCGCGAUAGCGCCAACGUCCUUAACCUCCAAUGCAUCCCACCACAUGAUAAUGCGUGAAGAGCCUUGGUUUUUUG,-5.29
8,GACCAAUCUGCCCUCAGAGCUCGAGAACAUCUUCGGAUGCAGAGGAGGCAGGCUUCGGUGGCGCGAUAGCGCCAACGUCCUCCACCUCCAAUGCAUCCCUCCACAUGAUGAUGCCUGAAAAGCCUUGGUCUUUUG,-3.75
9,GACCAAUCUGCCCUCAGAGCUCGAGAACAUCUUCGGAUGCAGAGGAGGCAGGCUUCGGUGGCGCGAUAGCGCCAACGUCCUCCACCUCCAAUGCAUCCCACCACAUGAUGAUGUCUGAAGAGCCUUGGUUUUUUG,-1.78
10,GACCAAUCUGCCCUCAGAGCUCGAGAACAUCUUCGGAUGCAGAGGAGGCAGGCUUCGGUGGCGCGAUAGCGCCAACGUCCUUAACUUCCAAUGCAUCCCACCACAUGAUAAUGCCUGAAGAGCCUUGGUUUUCUG,-0.604
11,GACCAAUCUGCCCUCAGAGCUCGAGAACAUCUUCGGAUGCAGAGGAGGCAGGCUUCGGUGGCGCGAUAGCGCCAACGUCCUUAACCUCCAAUGCAUCCCACCACAUGAUUAUGCCUGAAGAGCCUUGGUUUUUUG,-1.15
12,GACCAAUCUGCCCUCAGAGCUCGAGAACAUCUUCGGAUGCAGAGGAGGCAGGCUUCGGUGGCGCGAUAGCGCCAACGUCCUCCACCUCCAAUGCAUCCCACCACAUCAUGAUGCCUGAAGAGCCUUGGUUUUUUG,-2.05
13,GACCAAUCUGCCCUCAGAGCUCGAGAACAUCUUCGGAUGCAGAGGAGGCAGGCUUCGGUGGCGCGAUAGCGCCAACGUCCUCCACCUCCAAUGCAUCCCACCACAUGAUGAUGCCUGAGGAGCCUUGGUUUUUUG,-0.249
14,GACCAAUCUGCCCUCAGAGCUCGAGAACAUCUUCGGAUGCAGAGGAGGCAGGCUUCGGUGGCGCGAUAGCGCCAACGUCCUCCACCUCCAAUGCAUCCCAUCACAUGAUGAUGCCUGAAGAGCCUUGGUUUUUUG,0.114
15,GACCAAUCUGCCCUCAGAGCUCGAGAACAUCUUCGGAUGCAGAGGAGGCAGGCUUCGGUGGCGCGAUAGCGCCAACGUCCUUAACCUCCAAUGCAUCCCACCACAUGAUGAUACCUGAAGAGCCUUGGUUUUUUG,-1.1
16,GACCAAUCUGCCCUCAGAGCUCGAGAACAUCUUCGGAUGCAGAGGAGGCAGGCUUCGGUGGCGCGAUAGCGCCAACGUCCUCCACCUCCAAUGCAUCCCACAACAUGAUGAUGCCUGAAGAGCCUUGGUUUUUUG,-2.03
17,GACCAAUCUGCCCUCAGAGCUCGAGAACAUCUUCGGAUGCAGAGGAGGCAGGCUUCGGUGGCGCGAUAGCGCCAACGUCCUUAAAUUCCAAUGCAUACCACCACAUGAUGAUGCCUGAAGAGCGUUGGUUUUUUG,-5.65
18,GACCAAUCUGCCCUCAGAGCUCGAGAACAUCUUCGGAUGCAGAGGAGGCAGGCUUCGGUGGCGCGAUAGCGCCAACGUCCUUAACCUCCAAUGCAACCCACCACAUGAUGAUGCCUGAAGAGCCUUGGUUUUUUG,-1.57
19,GACCAAUCUGCCCUCAGAGCUCGAGAACAUCUUCGGAUGCAGAGGAGGCAGGCUUCGGUGGCGCGAUAGCGCCAACGUCCUUAACCUCCAAUGCACCUCACCACAUGAUGAUGCAUCAAGAGCCUUGGUUUUUUG,-6.13
20,GACCAAUCUGCCCUCAGAGCUCGAGAACAUCUUCGGAUGCAGAGGAGGCAGGCUUCGGUGGCGCGAUAGCGCCAACGUCCUUAACCUACAAUGCAUCCCACCACAUGAUGAUGCCUGAAUAGCCUUGAUUUUUUG,-1.98
21,GACCAAUCUGCCCUCAGAGCUCGAGAACAUCUUCGGAUGCAGAGGAGGCAGGCUUCGGUGGCGCGAUAGCGCCAACGUCCUUAACCUACAAUGCAUCCCUCCACAUGAUGACGCCUGAAGAGCCUUGGUUUUUUG,0.47

row,Variant,polymerase ribozyme fitness (log ratio)
1,GACCAAUCUGCCCUCAGAGCUCGAGAACAUCUUCGGAUGCAGAGGAGGCAGGCUUCGGUGGCGCGAUAGCGCCAACGUCCUUAACCUCCAAUGCAUCCCACCACAUGAUGAUGCCUGAAGAGCCUUGGUUUUAUG,-0.572
2,GACCAAUCUGCCCUCAGAGCUCGAGAACAUCUUCGGAUGCAGAGGAGGCAGGCUUCGGUGGCGCGAUAGCGCCAACGUCCUUAACCUCCAAUGCAUCCCACCACAUGAUGAUGCCUGAAGAGCCAUGGUUUUUUG,-0.249
3,GACCAAUCUGCCCUCAGAGCUCGAGAACAUCUUCGGAUGCAGAGGAGGCAGGCUUCGGUGGCGCGAUAGCGCCAACGUCCUCCACCUCCAAUACAUCCCACCACAUGAUGCUUCCUGAAGAGCCUUGGUUUUUUG,-4.96
4,GACCAAUCUGCCCUCAGAGCUCGAGAACAUCUUCGGAUGCAGAGGAGGCAGGCUUCGGUGGCGCGAUAGCGCCAACGUCCUCCACCUCCAAUACAUCCCACCACAUGAUGAUGCCUUAAGAGCCUUGGUUUUUUG,-2.52
5,GACCAAUCUGCCCUCAGAGCUCGAGAACAUCUUCGGAUGCAGAGGAGGCAGGCUUCGGUGGCGCGAUAGCGCCAACGUCCUCCACCUCCAAUGCAUCCCACCAAAUGAUGAUGCUUGAAGAGCCUUGGUUUUUUG,-4.27
6,GACCAAUCUGCCCUCAGAGCUCGAGAACAUCUUCGGAUGCAGAGGAGGCAGGCUUCGGUGGCGCGAUAGCGCCAACGUCCUCCACCUCCAAUGUAUCCCACCACAUGAUGAUGCCUGAAGAGCCUUGAUUUUUUG,-2.4
7,GACCAAUCUGCCCUCAGAGCUCGAGAACAUCUUCGGAUGCAGAGGAGGCAGGCUUCGGUGGCGCGAUAGCGCCAACGUCCUUAAACUCCAAUGCAUCCCACCACAUGAUGAUGCCUGAAGUGCCUUGGUUUUUUG,0.305
8,GACCAAUCUGCCCUCAGAGCUCGAGAACAUCUUCGGAUGCAGAGGAGGCAGGCUUCGGUGGCGCGAUAGCGCCAACGUCCUUGACCUCCAAUGCAUCCCAUCACAUGAUGAUGCCUGAAGAGCCUUGGUUUUUUG,-0.587
9,GACCAAUCUGCCCUCAGAGCUCGAGAACAUCUUCGGAUGCAGAGGAGGCAGGCUUCGGUGGCGCGAUAGCGCCAACGUCCUCCACCUCCAAUGCUUCCCACCACAUGAUGAUGCCCGAAGAGCCUUGGUUUUUUG,-1.65
10,GACCAAUCUGCCCUCAGAGCUCGAGAACAUCUUCGGAUGCAGAGGAGGCAGGCUUCGGUGGCGCGAUAGCGCCAACGUCCUCCACCUCCAAUGCAUCCCACCACAUGAUCAUGCCUGAACAGCCUUGGUUUUUUG,-5.9
11,GACCAAUCUGCCCUCAGAGCUCGAGAACAUCUUCGGAUGCAGAGGAGGCAGGCUUCGGUGGCGCGAUAGCGCCAACGUCCUCCACCUCCAGUGCAUCCCACCACAUGAUGGUGCCUGAAGAGCCUUGGUUUUUUG,-1.85
12,GACCAAUCUGCCCUCAGAGCUCGAGAACAUCUUCGGAUGCAGAGGAGGCAGGCUUCGGUGGCGCGAUAGCGCCAACGUCCUUAACCUCCAAUGCAUCCCACCACAUGAUGAUGCCUGAAGAGCCUUGAUUUUUUG,-2.32
13,GACCAAUCUGCCCUCAGAGCUCGAGAACAUCUUCGGAUGCAGAGGAGGCAGGCUUCGGUGGCGCGAUAGCGCCAACGUCCUUAACCUCCAAUGCAUCCCACCACAUGAUGAUGCCUGAAGAGCCUUGCUUUUUUG,-2.07
14,GACCAAUCUGCCCUCAGAGCUCGAGAACAUCUUCGGAUGCAGAGGAGGCAGGCUUCGGUGGCGCGAUAGCGCCAACGUCCUCCCCCUCCAAUGCAUCCCACCACAUGAUGAUGCCUGAAGAGCCUUGAUUAUUUG,-2.01
15,GACCAAUCUGCCCUCAGAGCUCGAGAACAUCUUCGGAUGCAGAGGAGGCAGGCUUCGGUGGCGCGAUAGCGCCAACGUCCUUAACCUUCAAUGCAUCCCACCACAUGAUGAUGCCUGAAGAGCCUUGGUUUUUUG,-0.335
16,GACCAAUCUGCCCUCAGAGCUCGAGAACAUCUUCGGAUGCAGAGGAGGCAGGCUUCGGUGGCGCGAUAGCGCCAACGUCCUCCACCUCCAAUGCAUCCCACCACAUGAUGAUGCAUGAAGAGCCUUGGUUUUUUG,0.0144
17,GACCAAUCUGCCCUCAGAGCUCGAGAACAUCUUCGGAUGCAGAGGAGGCAGGCUUCGGUGGCGCGAUAGCGCCAACGUCCUUAACCUCCAAUGCAUCCCACCACAUGAUGAUGCCUGAAGAGCCUUGGUUUUUUG,-0.201
18,GACCAAUCUGCCCUCAGAGCUCGAGAACAUCUUCGGAUGCAGAGGAGGCAGGCUUCGGUGGCGCGAUAGCGCCAACGUCCUUAACGUCCAAUGCAUCCCACCACAUGAUGAUGCCUGAAGGGCCUUGGUUUUUUG,1.16
19,GACCAAUCUGCCCUCAGAGCUCGAGAACAUCUUCGGAUGCAGAGGAGGCAGGCUUCGGUGGCGCGAUAGCGCCAACGUCCUCCACCUCCAAUGCAUCCCACCACAUGAUGUUGCCUGAAGAGCCUUGGUUUUUGG,-2.14
20,GACCAAUCUGCCCUCAGAGCUCGAGAACAUCUUCGGAUGCAGAGGAGGCAGGCUUCGGUGGCGCGAUAGCGCCAACGUCCUCCACCUCCAAUGAAUCCCACCACAUGAUGAUGCCUGAAGAGCCUUGGUUUUUUG,-0.753
21,GACCAAUCUGCCCUCAGAGCUCGAGAACAUCUUCGGAUGCAGAGGAGGCAGGCUUCGGUGGCGCGAUAGCGCCAACGUCCUUAACCUCCAAUGCAUCCCACCACAUGAUGAUGCCUGAAGAGCCUUGGUUUUUGG,0.46
